Among the data in patent US20240317859A1 (published 2024) are Kd values, retold here.

Test [1] concerns the target Fc gamma RIIIA/CD16a, CF (FcγRIIIA(V158)) (R&D Systems). The experiment in a line: SPR.
Test [2] has as its target T1, FcγRIIB/C (CD32b/c) (FcγRIIB) (R&D Systems) (UniProt P31994 46-217).
T1 chain: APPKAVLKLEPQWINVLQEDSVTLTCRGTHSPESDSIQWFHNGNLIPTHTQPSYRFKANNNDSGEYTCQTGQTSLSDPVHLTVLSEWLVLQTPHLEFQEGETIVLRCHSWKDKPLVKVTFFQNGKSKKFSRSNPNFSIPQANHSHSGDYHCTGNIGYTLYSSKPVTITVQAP
As to the kind of experiment: SPR.

Chain of Fc gamma RIIIA/CD16a, CF (FcγRIIIA(V158)) (R&D Systems) (chain, as listed by the source): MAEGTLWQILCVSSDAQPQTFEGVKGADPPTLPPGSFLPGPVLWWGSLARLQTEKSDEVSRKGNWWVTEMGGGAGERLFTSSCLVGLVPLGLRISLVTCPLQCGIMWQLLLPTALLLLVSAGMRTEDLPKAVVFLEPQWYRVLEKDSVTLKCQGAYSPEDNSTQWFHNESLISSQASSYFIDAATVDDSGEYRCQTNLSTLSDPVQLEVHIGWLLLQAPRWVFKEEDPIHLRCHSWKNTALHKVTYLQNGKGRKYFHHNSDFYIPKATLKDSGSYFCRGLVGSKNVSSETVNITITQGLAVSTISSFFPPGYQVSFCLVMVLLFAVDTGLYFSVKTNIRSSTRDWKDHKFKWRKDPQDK

B1: X4-K HM297-H5 (antibody)
chain 1: QVQLVQSGPEVKKPGASVKIPCKASGYTFTDYNVDWVRQVPGQGLEWMGDIDPNNGGTIYNQKFKDRVTMTVDKSTRTAYMELRSLRSDDTAVYYCARWRGAMDYWGQGTLVTVSSASTKGPSVFPLAPSSKSTSGGTAALGCLVKDYFPEPVTVSWNSGALTSGVHTFPAVLQSSGLYSLSSVVTVPSSSLGTQTYICNVNHKPSNTKVDKKVEPKSCDKTHTCPPCPAPELLGGPDVFLFPPKPKDTLMISRTPEVTCVVVDVSDEDPEVKFNWYVDGVEVHNAKTKPREEQYNSTYRVVSVLTVLHQDWLNGKEYKCAVSNKAYPAPEEKTISKAKGQPREPQVYTLPPSRDELTKNQVSLTCLVKGFYPSDIAVEWESNGQPENNYKTTPPVLDSDGSFFLYSKLTVDKSRWQQGNVFSCSVMHEALHNHYTQKSLSLSPGK
chain 2: DIQMTQSPSSLSASVGDRVTITCRASQDIDNYLKWYQQKPDGTVKLLIYDTSRLHSGVPSRFSGSGSGTDYTLTISSLKQEDFATYYCQQGYTLPWTFGQGTKLEIKRTVAAPSVFIFPPSDEQLKSGTASVVCLLNNFYPREAKVQWKVDNALQSGNSQESVTEQDSKDSTYSLSSTLTLSKADYEKHKVYACEVTHQGLSSPVTKSFNRGEC
Take B1: the figures for the Kd in test [1] and in test [2] were 3030 nM and 1250 nM, respectively.

B2: X2-K HM297-H5 (antibody)
chain 1: QVQLVQSGPEVKKPGASVKIPCKASGYTFTDYNVDWVRQVPGQGLEWMGDIDPNNGGTIYNQKFKDRVTMTVDKSTRTAYMELRSLRSDDTAVYYCARWRGAMDYWGQGTLVTVSSASTKGPSVFPLAPSSKSTSGGTAALGCLVKDYFPEPVTVSWNSGALTSGVHTFPAVLQSSGLYSLSSVVTVPSSSLGTQTYICNVNHKPSNTKVDKKVEPKSCDKTHTCPPCPAPELLDGPSVFLFPPKPKDTLMISRTPEVTCVVVDVSDEDPEVKFNWYVDGVEVHNAKTKPREEQYNSTYRVVSVLTVLHQDWLNGKEYKCAVSNKALPAPIEKTISKAKGQPREPQVYTLPPSRDELTKNQVSLTCLVKGFYPSDIAVEWESNGQPENNYKTTPPVLDSDGSFFLYSKLTVDKSRWQQGNVFSCSVMHEALHNHYTQKSLSLSPGK
chain 2: DIQMTQSPSSLSASVGDRVTITCRASQDIDNYLKWYQQKPDGTVKLLIYDTSRLHSGVPSRFSGSGSGTDYTLTISSLKQEDFATYYCQQGYTLPWTFGQGTKLEIKRTVAAPSVFIFPPSDEQLKSGTASVVCLLNNFYPREAKVQWKVDNALQSGNSQESVTEQDSKDSTYSLSSTLTLSKADYEKHKVYACEVTHQGLSSPVTKSFNRGEC
B2: the values for the Kd in test [1] and in test [2] were 5220 nM and 1290 nM, respectively.

B3: X3-KS HM268-K8 (antibody)
chain 1: QVQLVQSGPEVKKPGASVKVVCKTSGYTFTSYYIQWLKQRPGQGLEWIGWIYFGDASTKYNEKFKGRVTMTADKSTSTAYMELRSLRSDDTAVYYCASYYGSYFDYWGQGTTVTVSSASTKGPSVFPLAPSSKSTSGGTAALGCLVKDYFPEPVTVSWNSGALTSGVHTFPAVLQSSGLYSLSSVVTVPSSSLGTQTYICNVNHKPSNTKVDKKVEPKSCDKTHTCPPCPAPELLGGPDVFLFPPKPKDTLMISRTPEVTCVVVDVGDEDPEVKFNWYVDGVEVHNAKTKPREEQYNSTYRVVSVLTVLHQDWLNGKEYKCAVSNKALPAPIEKTISKAKGQPREPQVYTLPPSRDELTKNQVSLTCLVKGFYPSDIAVEWESNGQPENNYKTTPPVLDSDGSFFLYSKLTVDKSRWQQGNVFSCSVMHEALHNHYTQKSLSLSPGK
chain 2: DIQMTQSPSSLSASVGDRVTITCRASQDISNYLNWYQQKPDGTVKLLIYSTSRLHSGVPSRFSGSGSGTDYTLTISSLQPEDFATYYCQQGSTLPFTFGQGTKLEIKRTVAAPSVFIFPPSDEQLKSGTASVVCLLNNFYPREAKVQWKVDNALQSGNSQESVTEQDSKDSTYSLSSTLTLSKADYEKHKVYACEVTHQGLSSPVTKSFNRGEC
Regarding B3, the affinity in test [2], expressed as Kd, was 2540 nM. This counts as single-digit micromolar.

B4: X3-KS HM297-H5 (antibody)
chain 1: QVQLVQSGPEVKKPGASVKIPCKASGYTFTDYNVDWVRQVPGQGLEWMGDIDPNNGGTIYNQKFKDRVTMTVDKSTRTAYMELRSLRSDDTAVYYCARWRGAMDYWGQGTLVTVSSASTKGPSVFPLAPSSKSTSGGTAALGCLVKDYFPEPVTVSWNSGALTSGVHTFPAVLQSSGLYSLSSVVTVPSSSLGTQTYICNVNHKPSNTKVDKKVEPKSCDKTHTCPPCPAPELLGGPDVFLFPPKPKDTLMISRTPEVTCVVVDVGDEDPEVKFNWYVDGVEVHNAKTKPREEQYNSTYRVVSVLTVLHQDWLNGKEYKCAVSNKALPAPIEKTISKAKGQPREPQVYTLPPSRDELTKNQVSLTCLVKGFYPSDIAVEWESNGQPENNYKTTPPVLDSDGSFFLYSKLTVDKSRWQQGNVFSCSVMHEALHNHYTQKSLSLSPGK
chain 2: DIQMTQSPSSLSASVGDRVTITCRASQDIDNYLKWYQQKPDGTVKLLIYDTSRLHSGVPSRFSGSGSGTDYTLTISSLKQEDFATYYCQQGYTLPWTFGQGTKLEIKRTVAAPSVFIFPPSDEQLKSGTASVVCLLNNFYPREAKVQWKVDNALQSGNSQESVTEQDSKDSTYSLSSTLTLSKADYEKHKVYACEVTHQGLSSPVTKSFNRGEC
As for B4, the affinity in test [2], expressed as Kd, was 1430 nM.

B5: X2-K HM242-D3 (antibody)
chain 1: QVQLVQSGPEVKKPGASVKVVCKASGYTFTSYYIQWVRQVPGQGLEWMGWIYPGDGTTKYNEKFKGRVTMTIDTSTSTAYMELRSLRSDDTAVYYCASYYGSYFDYWGQGTLVTVSSASTKGPSVFPLAPSSKSTSGGTAALGCLVKDYFPEPVTVSWNSGALTSGVHTFPAVLQSSGLYSLSSVVTVPSSSLGTQTYICNVNHKPSNTKVDKKVEPKSCDKTHTCPPCPAPELLDGPSVFLFPPKPKDTLMISRTPEVTCVVVDVSDEDPEVKFNWYVDGVEVHNAKTKPREEQYNSTYRVVSVLTVLHQDWLNGKEYKCAVSNKALPAPIEKTISKAKGQPREPQVYTLPPSRDELTKNQVSLTCLVKGFYPSDIAVEWESNGQPENNYKTTPPVLDSDGSFFLYSKLTVDKSRWQQGNVFSCSVMHEALHNHYTQKSLSLSPGK
chain 2: not shown
With B5, the figures for the Kd in test [1] and in test [2] were 4270 nM and 1250 nM, respectively.

B6: X3-KS HM242-C3 (antibody)
chain 1: QVQLVQSGPEVKKPGASVKVVCKASGYTFTSYYIQWVKQRPGQGLEWIGWIYPGDGTTKYNEKFKGRVTMTIDKSTRTAYMELRSLRSDDTAVYYCASYYGSYFDYWGQGTLVTVSSASTKGPSVFPLAPSSKSTSGGTAALGCLVKDYFPEPVTVSWNSGALTSGVHTFPAVLQSSGLYSLSSVVTVPSSSLGTQTYICNVNHKPSNTKVDKKVEPKSCDKTHTCPPCPAPELLGGPDVFLFPPKPKDTLMISRTPEVTCVVVDVGDEDPEVKFNWYVDGVEVHNAKTKPREEQYNSTYRVVSVLTVLHQDWLNGKEYKCAVSNKALPAPIEKTISKAKGQPREPQVYTLPPSRDELTKNQVSLTCLVKGFYPSDIAVEWESNGQPENNYKTTPPVLDSDGSFFLYSKLTVDKSRWQQGNVFSCSVMHEALHNHYTQKSLSLSPGK
chain 2: not shown
With B6, the Kd in test [2] worked out at 1660 nM.

B7: X4-K HM242-C3 (antibody)
chain 1: QVQLVQSGPEVKKPGASVKVVCKASGYTFTSYYIQWVKQRPGQGLEWIGWIYPGDGTTKYNEKFKGRVTMTIDKSTRTAYMELRSLRSDDTAVYYCASYYGSYFDYWGQGTLVTVSSASTKGPSVFPLAPSSKSTSGGTAALGCLVKDYFPEPVTVSWNSGALTSGVHTFPAVLQSSGLYSLSSVVTVPSSSLGTQTYICNVNHKPSNTKVDKKVEPKSCDKTHTCPPCPAPELLGGPDVFLFPPKPKDTLMISRTPEVTCVVVDVSDEDPEVKFNWYVDGVEVHNAKTKPREEQYNSTYRVVSVLTVLHQDWLNGKEYKCAVSNKAYPAPEEKTISKAKGQPREPQVYTLPPSRDELTKNQVSLTCLVKGFYPSDIAVEWESNGQPENNYKTTPPVLDSDGSFFLYSKLTVDKSRWQQGNVFSCSVMHEALHNHYTQKSLSLSPGK
chain 2: not shown
For the molecule B7, the Kd in test [1] was found to be 143 nM; in test [2], 606 nM.

B8: X4-K HM242-D3 (antibody)
chain 1: QVQLVQSGPEVKKPGASVKVVCKASGYTFTSYYIQWVRQVPGQGLEWMGWIYPGDGTTKYNEKFKGRVTMTIDTSTSTAYMELRSLRSDDTAVYYCASYYGSYFDYWGQGTLVTVSSASTKGPSVFPLAPSSKSTSGGTAALGCLVKDYFPEPVTVSWNSGALTSGVHTFPAVLQSSGLYSLSSVVTVPSSSLGTQTYICNVNHKPSNTKVDKKVEPKSCDKTHTCPPCPAPELLGGPDVFLFPPKPKDTLMISRTPEVTCVVVDVSDEDPEVKFNWYVDGVEVHNAKTKPREEQYNSTYRVVSVLTVLHQDWLNGKEYKCAVSNKAYPAPEEKTISKAKGQPREPQVYTLPPSRDELTKNQVSLTCLVKGFYPSDIAVEWESNGQPENNYKTTPPVLDSDGSFFLYSKLTVDKSRWQQGNVFSCSVMHEALHNHYTQKSLSLSPGK
chain 2: not shown
As for B8, the Kd in test [1] is 244 nM; in test [2] it was 957 nM.

B9: X3-KS HM242-D3 (antibody)
chain 1: QVQLVQSGPEVKKPGASVKVVCKASGYTFTSYYIQWVRQVPGQGLEWMGWIYPGDGTTKYNEKFKGRVTMTIDTSTSTAYMELRSLRSDDTAVYYCASYYGSYFDYWGQGTLVTVSSASTKGPSVFPLAPSSKSTSGGTAALGCLVKDYFPEPVTVSWNSGALTSGVHTFPAVLQSSGLYSLSSVVTVPSSSLGTQTYICNVNHKPSNTKVDKKVEPKSCDKTHTCPPCPAPELLGGPDVFLFPPKPKDTLMISRTPEVTCVVVDVGDEDPEVKFNWYVDGVEVHNAKTKPREEQYNSTYRVVSVLTVLHQDWLNGKEYKCAVSNKALPAPIEKTISKAKGQPREPQVYTLPPSRDELTKNQVSLTCLVKGFYPSDIAVEWESNGQPENNYKTTPPVLDSDGSFFLYSKLTVDKSRWQQGNVFSCSVMHEALHNHYTQKSLSLSPGK
chain 2: not shown
As to B9, the Kd in test [2] is 2740 nM.

B10: X2-K HM242-C3 (antibody)
chain 1: QVQLVQSGPEVKKPGASVKVVCKASGYTFTSYYIQWVKQRPGQGLEWIGWIYPGDGTTKYNEKFKGRVTMTIDKSTRTAYMELRSLRSDDTAVYYCASYYGSYFDYWGQGTLVTVSSASTKGPSVFPLAPSSKSTSGGTAALGCLVKDYFPEPVTVSWNSGALTSGVHTFPAVLQSSGLYSLSSVVTVPSSSLGTQTYICNVNHKPSNTKVDKKVEPKSCDKTHTCPPCPAPELLDGPSVFLFPPKPKDTLMISRTPEVTCVVVDVSDEDPEVKFNWYVDGVEVHNAKTKPREEQYNSTYRVVSVLTVLHQDWLNGKEYKCAVSNKALPAPIEKTISKAKGQPREPQVYTLPPSRDELTKNQVSLTCLVKGFYPSDIAVEWESNGQPENNYKTTPPVLDSDGSFFLYSKLTVDKSRWQQGNVFSCSVMHEALHNHYTQKSLSLSPGK
chain 2: not shown
Molecule B10 gave a Kd in test [2] of 1210 nM.
